This is an account of results in US20170210787A1.

Assay [1] has as its target ptau 187-212 (pS202, pT205 by the sequence printed in Table 22) (human). The assay can be described thus: Ala-scan peptide ELISA, 1 ug/mL. On the technique in general: An ELISA detects its analyte on a solid surface through an enzyme-linked reagent.
Assay [2] addresses ptau 187-212 (pY197, pT205 by the sequence printed in Table 11) (human). As to the kind of experiment: peptide ELISA, 2 ug/mL.

Chain of CBTAU-7.1 (antibody) (VH): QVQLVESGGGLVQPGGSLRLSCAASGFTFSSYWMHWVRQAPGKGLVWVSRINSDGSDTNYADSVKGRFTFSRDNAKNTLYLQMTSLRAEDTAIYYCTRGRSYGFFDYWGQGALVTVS
Chain of CBTAU-7.1 (antibody) (VL): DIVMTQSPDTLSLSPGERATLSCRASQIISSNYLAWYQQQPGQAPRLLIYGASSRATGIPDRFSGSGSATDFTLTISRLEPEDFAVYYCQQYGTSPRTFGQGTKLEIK

For the substance CBTAU-7.1 (antibody), the results for the OD450 in assay [1] and in assay [2] were more than 1.5 od and 0.5 to 1 od, respectively.
